From paper PMC6817822

Target: PR55α regulatory subunit of PP2A (human (endogenous in CD18/HPAF)) (UniProt P63151)
Assay: co-IP; PR55α immunoprecipitated with anti-PR55α (2G9) from CD18/HPAF cells stably transduced with empty vector, Flag-YAP or Flag-YAP(5SA); immunoblotted with anti-PR55α (100C1) and anti-Flag (M2)

Sequence of UniProt P63151 (P63151 whole entry): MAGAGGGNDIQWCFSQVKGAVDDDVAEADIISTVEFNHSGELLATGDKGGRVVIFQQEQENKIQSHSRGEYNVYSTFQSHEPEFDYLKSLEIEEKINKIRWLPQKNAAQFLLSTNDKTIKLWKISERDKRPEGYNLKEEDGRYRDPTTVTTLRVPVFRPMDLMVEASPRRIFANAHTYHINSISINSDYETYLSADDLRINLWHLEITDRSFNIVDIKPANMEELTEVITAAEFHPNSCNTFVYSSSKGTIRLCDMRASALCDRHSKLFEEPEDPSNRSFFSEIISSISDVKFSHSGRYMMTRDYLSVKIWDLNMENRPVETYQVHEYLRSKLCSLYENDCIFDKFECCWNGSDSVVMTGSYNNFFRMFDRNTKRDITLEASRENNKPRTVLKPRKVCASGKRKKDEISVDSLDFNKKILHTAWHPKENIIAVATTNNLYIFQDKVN

Flag-YAP(WT) (natural protein)
fold of the level in the anti-PR55α immunoprecipitates against Flag-YAP(5SA): 28 fold
